In paper doi:10.1101/787473 (2019):

Target: full length human importin β (KPNB1), expressed from pET30a-WT Importin β (pKW485) (human, UniProt Q14974 1-876)
Assay: FRET; displacement of importin β-bound Rango sensor

Chain of full length human importin β (KPNB1), expressed from pET30a-WT Importin β (pKW485) (Q14974 whole entry): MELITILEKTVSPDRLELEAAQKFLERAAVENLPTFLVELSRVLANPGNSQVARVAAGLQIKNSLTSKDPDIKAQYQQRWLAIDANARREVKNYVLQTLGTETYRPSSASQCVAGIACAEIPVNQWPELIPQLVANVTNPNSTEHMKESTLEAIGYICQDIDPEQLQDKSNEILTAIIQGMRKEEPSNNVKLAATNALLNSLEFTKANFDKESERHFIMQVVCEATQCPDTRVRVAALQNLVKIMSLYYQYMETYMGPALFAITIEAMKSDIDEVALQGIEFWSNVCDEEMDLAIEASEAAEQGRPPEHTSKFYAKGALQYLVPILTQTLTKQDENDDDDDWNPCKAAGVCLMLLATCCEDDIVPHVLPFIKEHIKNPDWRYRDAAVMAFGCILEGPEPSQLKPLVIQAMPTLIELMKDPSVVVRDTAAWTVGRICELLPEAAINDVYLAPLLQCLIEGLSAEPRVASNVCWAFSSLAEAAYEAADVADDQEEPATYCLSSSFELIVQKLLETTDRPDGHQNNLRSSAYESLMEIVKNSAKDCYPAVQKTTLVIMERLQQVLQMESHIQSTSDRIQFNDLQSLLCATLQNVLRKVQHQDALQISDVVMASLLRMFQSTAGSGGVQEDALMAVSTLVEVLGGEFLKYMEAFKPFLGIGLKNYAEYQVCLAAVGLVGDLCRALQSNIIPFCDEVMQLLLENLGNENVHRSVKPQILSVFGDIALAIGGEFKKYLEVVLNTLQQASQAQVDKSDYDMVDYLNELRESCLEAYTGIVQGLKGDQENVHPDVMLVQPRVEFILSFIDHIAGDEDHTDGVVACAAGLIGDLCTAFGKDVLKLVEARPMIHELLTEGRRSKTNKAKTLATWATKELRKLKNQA

| Kd [nM] | Binder |
| --- | --- |
| 17.4 | GRGRGRGRGRGRGRGRGRGRKC |
| 8.2 | PRPRPRPRPRPRPRPRPRPRKC |
